From the supplement of paper PMC9112550, “Optimization of the antimicrobial peptide Bac7 by deep mutational scanning” (BMC Biology, 2022)

Test system: Escherichia coli TOP10
Test: shrunken log2 fold change of peptide-encoding DNA abundance (4.5 h post-induction vs induction); higher = less antimicrobial activity (less host growth inhibition)
Details: time post-induction: 4.5 h; library: site-saturation at positions 5, 18, 19, 20
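Further: peptides expressed intracellularly from a pBAD plasmid library in pooled LB shake-flask culture, induced with 0.3% L-arabinose, DNA abundance read by NGS, three biological replicates, DESeq2 with apeglm shrinkage.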

| Sequence | shrunken log2 fold change |
| --- | --- |
| RRIRIRPPRLPRPRPRPVGIPRP | 0.16 |
| RRIRMRPPRLPRPRPRPFIMPRP | -0.158 |
| RRIRKRPPRLPRPRPRPPQLPRP | 0.488 |
| RRIRIRPPRLPRPRPRPQCQPRP | -0.153 |
| RRIRKRPPRLPRPRPRPVACPRP | -0.0228 |
| RRIRFRPPRLPRPRPRPPCAPRP | 0.576 |
| RRIRMRPPRLPRPRPRPLMQPRP | 0.29 |
| RRIRQRPPRLPRPRPRPRLFPRP | 0.701 |
| RRIRCRPPRLPRPRPRPLWMPRP | -0.378 |
| RRIRMRPPRLPRPRPRPQVKPRP | -0.0452 |
| RRIRPRPPRLPRPRPRPIPLPRP | -0.191 |
| RRIRERPPRLPRPRPRPGWDPRP | 0.0203 |
| RRIRKRPPRLPRPRPRPVSCPRP | 0.129 |
| RRIRARPPRLPRPRPRPCDNPRP | -0.273 |
| RRIRVRPPRLPRPRPRPEAQPRP | 0.112 |
| RRIRLRPPRLPRPRPRPFMNPRP | -0.217 |
| RRIRPRPPRLPRPRPRPYADPRP | 0.0774 |
| RRIRSRPPRLPRPRPRPMGRPRP | 0.0253 |
| RRIRKRPPRLPRPRPRPEHEPRP | 1.09 |
| RRIRVRPPRLPRPRPRPYTTPRP | -0.721 |
| RRIRWRPPRLPRPRPRPTMDPRP | 0.156 |
| RRIRHRPPRLPRPRPRPPFCPRP | 0.00537 |

| Sequence | shrunken log2 fold change |
| --- | --- |
| RRIRMRPPRLPRPRPRPAFVPRP | 0.233 |
| RRIRSRPPRLPRPRPRPVAGPRP | 0.0927 |
| RRIRNRPPRLPRPRPRPVPRPRP | 0.0283 |
| RRIRIRPPRLPRPRPRPQWMPRP | -0.103 |
| RRIRCRPPRLPRPRPRPTCGPRP | 0.111 |
| RRIRWRPPRLPRPRPRPMMYPRP | -0.339 |
| RRIRFRPPRLPRPRPRPYHKPRP | -0.6 |
| RRIRLRPPRLPRPRPRPRSCPRP | -0.0664 |
| RRIRSRPPRLPRPRPRPGEDPRP | 0.106 |
| RRIRDRPPRLPRPRPRPDGTPRP | 0.184 |
| RRIRFRPPRLPRPRPRPEGGPRP | 0.586 |
| RRIRCRPPRLPRPRPRPGWRPRP | 0.331 |
| RRIRIRPPRLPRPRPRPGYQPRP | -0.0481 |
| RRIRMRPPRLPRPRPRPQSLPRP | -0.0682 |
| RRIRTRPPRLPRPRPRPYESPRP | -0.00247 |
| RRIRIRPPRLPRPRPRPCDYPRP | -1.01 |
| RRIRNRPPRLPRPRPRPMFPPRP | -0.235 |
| RRIRSRPPRLPRPRPRPTSRPRP | -0.0504 |
| RRIRERPPRLPRPRPRPWPVPRP | -0.643 |
| RRIRGRPPRLPRPRPRPFMGPRP | -0.123 |
| RRIRKRPPRLPRPRPRPARGPRP | 0.766 |
| RRIRWRPPRLPRPRPRPCLPPRP | -0.341 |

| Sequence | shrunken log2 fold change |
| --- | --- |
| RRIRRRPPRLPRPRPRPYDAPRP | -0.635 |
| RRIRRRPPRLPRPRPRPIMLPRP | -0.272 |
| RRIRHRPPRLPRPRPRPDPNPRP | -0.0239 |
| RRIRRRPPRLPRPRPRPQCHPRP | -0.0986 |
| RRIRMRPPRLPRPRPRPWNHPRP | -0.0446 |
| RRIRGRPPRLPRPRPRPFHCPRP | -0.36 |
| RRIRMRPPRLPRPRPRPSMGPRP | 0.0383 |
| RRIRVRPPRLPRPRPRPSCGPRP | -0.113 |
| RRIRERPPRLPRPRPRPYTVPRP | -0.74 |
| RRIRQRPPRLPRPRPRPAGEPRP | 0.156 |
| RRIRPRPPRLPRPRPRPRECPRP | 0.378 |
| RRIRQRPPRLPRPRPRPDARPRP | 0.422 |
| RRIRPRPPRLPRPRPRPSHHPRP | -0.529 |
| RRIRERPPRLPRPRPRPLYYPRP | -0.694 |
| RRIRWRPPRLPRPRPRPPSFPRP | -0.0861 |
| RRIRVRPPRLPRPRPRPFMDPRP | -0.36 |
| RRIRHRPPRLPRPRPRPVTCPRP | 0.0254 |
| RRIRIRPPRLPRPRPRPPLPPRP | 0.796 |
| RRIRHRPPRLPRPRPRPGQYPRP | -0.0767 |
| RRIRTRPPRLPRPRPRPNPTPRP | 0.207 |
| RRIRSRPPRLPRPRPRPNARPRP | -0.119 |
| RRIRQRPPRLPRPRPRPDDHPRP | -0.00211 |

| Sequence | shrunken log2 fold change |
| --- | --- |
| RRIRLRPPRLPRPRPRPGVYPRP | -0.221 |
| RRIRKRPPRLPRPRPRPFPHPRP | -0.04 |
| RRIRSRPPRLPRPRPRPVGVPRP | 0.0685 |
| RRIRLRPPRLPRPRPRPEMYPRP | -0.00133 |
| RRIRERPPRLPRPRPRPYAMPRP | -0.416 |
| RRIRVRPPRLPRPRPRPWWKPRP | 0.0375 |
| RRIRWRPPRLPRPRPRPIAAPRP | 0.976 |
| RRIRARPPRLPRPRPRPQYPPRP | -0.414 |
| RRIRSRPPRLPRPRPRPIYEPRP | -0.134 |
| RRIRARPPRLPRPRPRPFIWPRP | 0.00679 |
| RRIRDRPPRLPRPRPRPHDGPRP | 0.1 |
| RRIRVRPPRLPRPRPRPGHIPRP | -0.028 |
| RRIRDRPPRLPRPRPRPMHVPRP | -0.00476 |
| RRIRQRPPRLPRPRPRPMTDPRP | -0.0989 |
| RRIRGRPPRLPRPRPRPQMEPRP | 0.473 |
| RRIRTRPPRLPRPRPRPMMFPRP | -0.0404 |
| RRIRHRPPRLPRPRPRPMDFPRP | 3.65 |
| RRIRIRPPRLPRPRPRPDMAPRP | -0.0603 |
| RRIRQRPPRLPRPRPRPDEEPRP | -0.0445 |
| RRIRHRPPRLPRPRPRPFCPPRP | -0.772 |
| RRIRDRPPRLPRPRPRPVVNPRP | 0.24 |
| RRIRKRPPRLPRPRPRPPWSPRP | 0.154 |

| Sequence | shrunken log2 fold change |
| --- | --- |
| RRIRNRPPRLPRPRPRPYPGPRP | -0.123 |
| RRIRRRPPRLPRPRPRPPCFPRP | 0.741 |
| RRIRTRPPRLPRPRPRPICYPRP | -0.387 |
| RRIRWRPPRLPRPRPRPCQEPRP | -0.15 |
| RRIRNRPPRLPRPRPRPCCRPRP | -0.0438 |
| RRIRQRPPRLPRPRPRPLSMPRP | -0.262 |
| RRIRVRPPRLPRPRPRPCMDPRP | -0.836 |
| RRIRRRPPRLPRPRPRPMVLPRP | -0.0254 |
| RRIRERPPRLPRPRPRPMDQPRP | -0.00192 |
| RRIRSRPPRLPRPRPRPRPRPRP | 0.815 |
| RRIRKRPPRLPRPRPRPKIYPRP | -0.0249 |
| RRIRERPPRLPRPRPRPWWSPRP | -0.0183 |
| RRIRGRPPRLPRPRPRPMSMPRP | 0.257 |
| RRIRERPPRLPRPRPRPRFAPRP | 0.0577 |
| RRIRARPPRLPRPRPRPMMTPRP | 0.331 |
| RRIRSRPPRLPRPRPRPDGTPRP | -0.199 |
| RRIRYRPPRLPRPRPRPYPEPRP | -0.173 |
| RRIRQRPPRLPRPRPRPKICPRP | -0.101 |
| RRIRERPPRLPRPRPRPERWPRP | -0.00254 |
| RRIRERPPRLPRPRPRPRARPRP | 0.233 |
| RRIRFRPPRLPRPRPRPRSMPRP | -0.408 |
